Measured values: article PMC10514974, “The NAC transcription factor MdNAC4 positively regulates nitrogen deficiency-induced leaf senescence by enhancing ABA biosynthesis in apple”

T1: MdNAC4-GST (apple, UniProt B6DXL4 1-350)
T1 sequence: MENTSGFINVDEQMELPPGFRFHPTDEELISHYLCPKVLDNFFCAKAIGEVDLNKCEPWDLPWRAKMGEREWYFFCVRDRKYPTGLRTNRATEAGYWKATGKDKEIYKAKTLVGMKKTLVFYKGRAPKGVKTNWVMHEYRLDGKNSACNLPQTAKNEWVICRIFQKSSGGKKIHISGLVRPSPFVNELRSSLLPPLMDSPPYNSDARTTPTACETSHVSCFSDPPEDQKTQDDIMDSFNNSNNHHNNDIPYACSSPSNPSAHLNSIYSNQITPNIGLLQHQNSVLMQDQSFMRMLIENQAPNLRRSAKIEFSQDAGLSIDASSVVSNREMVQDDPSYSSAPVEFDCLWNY


Experiments:
Details in all cases: protein: recombinant; tags: GST (pGEX4T-1); label: biotin; blunt
[1] = target: T1, MdNAC4-GST; experiment: EMSA; unlabeled competitor 5x, 50x, 100x abolished binding; LightShift binding buffer, 30 min at 24 °C in the dark; biotin-labeled probes; salt and pH not stated
[2] = target: T1, MdNAC4-GST; experiment: EMSA; LightShift binding buffer, 30 min at 24 °C in the dark; biotin-labeled probes; salt and pH not stated
[3] = target: T1, MdNAC4-GST; experiment: EMSA; unlabeled competitor 5x, 50x, 100x progressively abolished binding; LightShift binding buffer, 30 min at 24 °C in the dark; biotin-labeled probes; salt and pH not stated

Row | Binder | binding result [2] | other results
1 | MdSAG39 promoter probe P2 (ABRE) (dsDNA) DNA 1: TTTTGTAAGGCACGTACCACGCTGA DNA 2: TCAGCGTGGTACGTGCCTTACAAAA | – | binding result [1]: binds
2 | MdSAG39 mutant probe (dsDNA) DNA 1: TTTTGTAAGGGACGGACCACGCTGA DNA 2: TCAGCGTGGTCCGTCCCTTACAAAA | no binding | –
3 | MdNCED2 promoter probe P4 (ABRE) (dsDNA) DNA 1: TAAATCCACCACGTGGTCTCTCATG DNA 2: CATGAGAGACCACGTGGTGGATTTA | – | binding result [3]: binds
4 | MdNCED2 mutant probe (dsDNA) DNA 1: TAAATCCACGACGGGGTCTCTCATG DNA 2: CATGAGAGACCCCGTCGTGGATTTA | no binding | –
